Where a chain is given by its changes, count along the chain named. Blank lines part the entries; values can stand above or below the binder they belong to.
Tests used:
[1] = target: T1, 140 kDa truncated membrane-bound C-terminal ALK fragment (human, UniProt Q9UM73 655-1620); assay: western blot of NB cell lysates
T1 construct: also called CTF; 140 kDa fragment

ALK-LF655FY = target: T2, ALK-LF655FY; assay: immunofluorescence on NIH3T3 cells expressing the construct
T2 construct: also called NIH3T3 ALK LF655FY; MSCV-LF655FY
T2 sequence (receptor chain, as listed by the source): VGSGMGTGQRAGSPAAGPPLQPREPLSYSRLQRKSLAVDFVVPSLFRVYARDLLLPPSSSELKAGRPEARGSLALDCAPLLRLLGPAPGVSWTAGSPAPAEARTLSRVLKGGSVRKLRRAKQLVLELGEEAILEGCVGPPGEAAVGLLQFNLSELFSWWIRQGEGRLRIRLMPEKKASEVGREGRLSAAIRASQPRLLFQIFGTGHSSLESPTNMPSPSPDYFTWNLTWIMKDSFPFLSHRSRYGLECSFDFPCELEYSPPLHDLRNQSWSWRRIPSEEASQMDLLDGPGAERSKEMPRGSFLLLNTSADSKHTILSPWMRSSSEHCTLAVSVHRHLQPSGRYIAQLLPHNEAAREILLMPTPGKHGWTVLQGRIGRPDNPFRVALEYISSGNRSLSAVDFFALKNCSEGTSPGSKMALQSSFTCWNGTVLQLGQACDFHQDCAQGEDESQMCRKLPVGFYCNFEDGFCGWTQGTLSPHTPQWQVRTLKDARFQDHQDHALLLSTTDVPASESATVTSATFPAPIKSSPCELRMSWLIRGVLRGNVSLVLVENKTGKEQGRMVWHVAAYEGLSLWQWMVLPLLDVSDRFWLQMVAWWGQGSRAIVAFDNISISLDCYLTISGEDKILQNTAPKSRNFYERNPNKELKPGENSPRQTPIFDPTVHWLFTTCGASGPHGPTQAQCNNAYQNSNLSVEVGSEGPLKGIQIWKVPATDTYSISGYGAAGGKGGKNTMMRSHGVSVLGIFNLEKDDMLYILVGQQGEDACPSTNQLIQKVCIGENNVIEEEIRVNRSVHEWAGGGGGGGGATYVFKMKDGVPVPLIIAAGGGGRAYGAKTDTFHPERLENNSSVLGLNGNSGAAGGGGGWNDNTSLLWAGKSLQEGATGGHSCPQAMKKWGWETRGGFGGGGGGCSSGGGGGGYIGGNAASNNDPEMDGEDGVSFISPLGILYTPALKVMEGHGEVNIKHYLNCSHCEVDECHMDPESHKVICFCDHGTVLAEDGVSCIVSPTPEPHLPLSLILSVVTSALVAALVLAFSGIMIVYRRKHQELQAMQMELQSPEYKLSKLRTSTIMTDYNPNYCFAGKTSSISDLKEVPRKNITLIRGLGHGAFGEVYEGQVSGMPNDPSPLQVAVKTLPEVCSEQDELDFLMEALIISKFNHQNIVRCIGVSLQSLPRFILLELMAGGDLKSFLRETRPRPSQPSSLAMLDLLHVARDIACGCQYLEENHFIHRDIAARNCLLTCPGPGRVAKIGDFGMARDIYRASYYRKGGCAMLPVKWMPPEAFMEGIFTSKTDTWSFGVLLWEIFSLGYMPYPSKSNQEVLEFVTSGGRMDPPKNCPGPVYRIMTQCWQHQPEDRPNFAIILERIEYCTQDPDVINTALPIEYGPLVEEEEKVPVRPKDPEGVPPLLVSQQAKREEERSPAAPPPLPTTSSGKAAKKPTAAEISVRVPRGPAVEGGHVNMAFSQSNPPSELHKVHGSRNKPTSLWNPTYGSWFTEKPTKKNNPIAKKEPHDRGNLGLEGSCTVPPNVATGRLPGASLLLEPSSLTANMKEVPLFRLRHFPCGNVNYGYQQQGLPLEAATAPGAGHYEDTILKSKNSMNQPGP
Procedure: A 1:100 antibody dilution was used.
Cells (0.5×10⁶ per well) were seeded into six-well plates and grown on glass coverslips for 24 hr. before fixation in 4% paraformaldehyde in PBS for 15 min at room temperature (RT), washed with PBS, permeabilized in 0.1% Triton X-100, and blocked with PBS containing 0.05% Tween-20 and 5% BSA for 1 hr. to block nonspecific binding. […] Images were collected on a Zeiss AXIO Imager Z1 fluorescence microscope. […] After 24 hours, cells were washed once in PBS, fixed in 4% paraformaldehyde in PBS, washed, permeabilized in 0.1% Triton X-100, and blocked in PBS containing 10% horse serum. […] The next day, cells were washed, incubated in goat anti-rabbit IgG secondary antibody (1:1000) for 1 hr. washed, and incubated in Streptavidin-TexasRed (1:1000) for 1 hr. Cover slips were mounted onto slides using mounting medium containing DAPI. Images were collected on a Zeiss AXIO Imager Z1 fluorescence microscope.

ALK-hFc = target: T3, ALK-hFc; assay: ELISA of hybridoma supernatant on a plate coated with ALK-hFc, detection with anti-mouse kappa light chain antibody; control row Co 0.067
T3 construct: also called ALK ECD-human Fc fusion protein; ALK-ECD-hFc; not shown: Human IgG2 Fc of the vector pFUse-hIgG2-FC2, and any vector-derived junction residues
T3 sequence (chain, as listed by the source limits assumed): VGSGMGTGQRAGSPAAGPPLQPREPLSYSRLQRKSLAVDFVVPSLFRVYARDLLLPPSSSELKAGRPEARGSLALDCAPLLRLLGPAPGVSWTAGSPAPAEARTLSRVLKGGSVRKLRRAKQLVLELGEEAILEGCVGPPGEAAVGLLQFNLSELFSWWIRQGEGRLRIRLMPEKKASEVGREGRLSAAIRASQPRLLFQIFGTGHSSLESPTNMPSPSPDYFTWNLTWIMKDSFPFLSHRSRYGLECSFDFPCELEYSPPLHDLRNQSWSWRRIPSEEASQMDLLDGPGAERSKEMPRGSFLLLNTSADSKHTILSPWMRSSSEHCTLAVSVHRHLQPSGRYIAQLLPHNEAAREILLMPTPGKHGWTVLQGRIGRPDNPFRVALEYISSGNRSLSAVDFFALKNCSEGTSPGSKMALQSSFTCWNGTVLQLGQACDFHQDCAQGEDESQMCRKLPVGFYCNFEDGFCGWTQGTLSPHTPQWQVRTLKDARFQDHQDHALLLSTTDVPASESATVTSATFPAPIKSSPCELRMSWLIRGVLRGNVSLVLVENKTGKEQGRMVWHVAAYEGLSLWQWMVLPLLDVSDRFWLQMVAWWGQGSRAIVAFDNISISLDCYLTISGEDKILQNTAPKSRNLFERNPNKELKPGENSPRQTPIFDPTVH
Procedure: (§1) HAT-selected fused cells were distributed in 96 well plates and the hybridoma supernatants were subjected to several rounds of screening. Initial screening was performed using ELISA against human Fc to test antigen binding with the ALK ECD-human Fc fusion protein. […] These were rescreened by FACS against Ba/F3 and neuroblastoma (NB) cells expressing ALK. […] (A) Binding of hybridoma supernatants using an antigen-binding capture assay. The plate was coated with goat-anti-mouse IgG Fc, incubated with hybridoma supernatants, followed by ALK-HRP and visualized using an HRP substrate. (B) Binding of selected hybridoma supernatants to a human Fc antibody using ELISA screening. Plates were coated with the ALK ECD-human Fc fusion protein (ALK-hFc) together with an irrelevant hFc protein and visualized using an anti-mouse kappa light chain antibody.

Irrel-hFc = target: T4, Irrel-hFc; assay: ELISA of hybridoma supernatant on a plate coated with an irrelevant hFc protein, detection with anti-mouse kappa light chain antibody; control row Co 0.062
T4 construct: also called irrelevant hFc protein
Procedure: as §1

[2] = target: T5, Full-length human anaplastic lymphoma kinase (ALK) receptor, wild type (human, UniProt Q9UM73 19-1620); assay: western blot of NB cell lysates
T5 construct: Tested in cell lysates (western blot, IP) and on fixed cells (IF, ICC); HA- or FLAG-tagged in the co-IP dimerisation assay and FLAG-tagged and purified in the MMP-9 cleavage assay; also called WT ALK; ALK WT
T5 sequence (Q9UM73 19-1620 limits assumed): as the sequence (receptor chain, as listed by the source) above, with F637L, Y638F counted along it

Human ALK F1174L = target: T6, Human ALK F1174L (human, UniProt Q9UM73 19-1620); assay: immunofluorescence on SHEP cells expressing ALK F1174L, 1:100 dilution
T6 construct: Expressed in SHEP neuroblastoma cells (IF) and in tumours of the ALK F1174L/MYCN transgenic mouse (IHC)
T6 sequence (Q9UM73 19-1620 F1174L limits assumed): as the sequence (receptor chain, as listed by the source) above, with F637L, Y638F, F1156L counted along it

[3] = target: T7, Shed ALK extracellular domain fragment (ALK 1-654) (human, UniProt Q9UM73 19-654); assay: sandwich ELISA, 7F7 capture, 8G7 detection, ALK-ECD protein as the varied antigen
T7 construct: Fragment released into conditioned media or serum by cleavage at Asn654-Leu655; also called SF; secreted extracellular fragment
T7 sequence (Q9UM73 19-654): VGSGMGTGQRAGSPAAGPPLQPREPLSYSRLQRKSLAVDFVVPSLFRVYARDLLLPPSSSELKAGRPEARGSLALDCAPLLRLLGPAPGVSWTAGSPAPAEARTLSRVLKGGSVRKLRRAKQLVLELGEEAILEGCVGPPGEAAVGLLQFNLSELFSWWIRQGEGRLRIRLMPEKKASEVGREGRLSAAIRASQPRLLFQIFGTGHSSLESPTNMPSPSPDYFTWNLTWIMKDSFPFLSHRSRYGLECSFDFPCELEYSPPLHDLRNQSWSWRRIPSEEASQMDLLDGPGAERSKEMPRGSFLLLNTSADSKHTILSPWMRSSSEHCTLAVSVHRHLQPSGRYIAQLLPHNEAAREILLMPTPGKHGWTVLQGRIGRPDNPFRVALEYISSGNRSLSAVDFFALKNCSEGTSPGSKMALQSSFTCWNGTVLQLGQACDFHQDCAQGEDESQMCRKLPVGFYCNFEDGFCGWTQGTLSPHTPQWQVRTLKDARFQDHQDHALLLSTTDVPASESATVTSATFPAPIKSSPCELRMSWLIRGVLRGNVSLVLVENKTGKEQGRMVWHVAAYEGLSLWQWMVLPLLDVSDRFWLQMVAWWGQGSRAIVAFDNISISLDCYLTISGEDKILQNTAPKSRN
Description: (B) ELISA of the shed ALK ECD protein in sera from patients with neuroblastoma.

T1 sequence (Q9UM73 655-1620): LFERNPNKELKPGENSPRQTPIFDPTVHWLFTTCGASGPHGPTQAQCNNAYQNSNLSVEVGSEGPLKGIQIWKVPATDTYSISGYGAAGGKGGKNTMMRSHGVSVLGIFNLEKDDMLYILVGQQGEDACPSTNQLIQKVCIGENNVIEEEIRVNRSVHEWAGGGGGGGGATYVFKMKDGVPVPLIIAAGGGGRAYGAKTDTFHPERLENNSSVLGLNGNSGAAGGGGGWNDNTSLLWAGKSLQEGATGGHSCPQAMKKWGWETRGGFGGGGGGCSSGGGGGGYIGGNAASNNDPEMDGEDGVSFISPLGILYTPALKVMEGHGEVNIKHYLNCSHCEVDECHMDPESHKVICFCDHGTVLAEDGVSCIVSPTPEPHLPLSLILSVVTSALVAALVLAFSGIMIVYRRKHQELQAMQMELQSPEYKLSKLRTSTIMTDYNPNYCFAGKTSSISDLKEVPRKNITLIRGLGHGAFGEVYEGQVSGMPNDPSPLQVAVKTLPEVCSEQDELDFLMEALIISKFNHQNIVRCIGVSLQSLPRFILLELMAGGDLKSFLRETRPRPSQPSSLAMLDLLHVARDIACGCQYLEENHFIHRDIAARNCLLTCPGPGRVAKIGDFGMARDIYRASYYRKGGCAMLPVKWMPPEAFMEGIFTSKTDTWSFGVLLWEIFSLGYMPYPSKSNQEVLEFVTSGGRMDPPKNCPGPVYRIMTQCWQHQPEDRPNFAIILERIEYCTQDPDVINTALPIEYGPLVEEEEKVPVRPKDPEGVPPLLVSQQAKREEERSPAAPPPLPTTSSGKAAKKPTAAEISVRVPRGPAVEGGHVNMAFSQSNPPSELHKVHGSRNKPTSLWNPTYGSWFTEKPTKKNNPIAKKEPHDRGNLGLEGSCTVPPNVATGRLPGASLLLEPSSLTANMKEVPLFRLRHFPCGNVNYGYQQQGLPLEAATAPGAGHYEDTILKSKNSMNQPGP

binding result [1]: no binding
binding result (ALK-LF655FY): binds
ELISA reading (name not given) (ALK-hFc): 0.56
ELISA reading (name not given) (Irrel-hFc): 0.064
B1: Mouse monoclonal anti-ALK 8G7 (antibody, IgG1, V domains shown)
VH: QVQLQQSGAELVRPGASVTLSCKASGYTFTDYEMHWVKQTPVHGLEWIGAIDPETGGSAYNQKFKAKAILTADRSSSTAYMELRSLTSEDSAVYYCTRTRYYGSSPAMDYWGQGTSVTVSS
VL: DIQMTQTTSSLSASLGDRVTISCSASQGIGNYLNWYQQKPDGTVKLLIYYTSSLHSGVPSRFSGSGSGTDYSLTISNLEPEDIATYYCQQYSKLPYTFGGGTKLEIK
notes: constant regions are not; also called Ab 8G7; 8G7 N-terminal anti-ALK antibody

binding result [2]: binds
binding result (Human ALK F1174L): binds
binding result [3]: binds
ELISA reading (name not given) (ALK-hFc): 0.872
ELISA reading (name not given) (Irrel-hFc): 0.063
B2: Monoclonal anti-ALK antibody 7F7 (antibody, IgG1, V domains shown)
VH: QVQLQQSGAELVRPGASVTLSCKASGYTFTDYEIHWMKQTPVHGLEWIGTIDPETGGTAYNQKFKGKAILTADKSSSTAYMELRSLTSEDSAVYYCTRCYYGSSWYFDVWGTGTTVTVSS
VL: DIQMTQTTSSLSASLGDRVTISCSASQGISNYLNWYQQKPDGTVKLLIYYTSSLHSGVPSRFSGSGSGTDYSLTISNLELEDIATYYCQQYSKVPRTFGGGTKLEIKR
notes: also called Ab 7F7

ELISA reading (name not given) (ALK-hFc): 1.01
ELISA reading (name not given) (Irrel-hFc): 0.064
B3: Monoclonal anti-ALK antibody 5H3 (antibody, IgG1, V domains shown)
VH: B1 VH
VL: B2 VL with S30G, L80P, V94L, R96Y
notes: The variable part as printed looks identical to that of 8G7; also called Ab 5H3
